For one substance, K half results are on record in publication PMC7466809.

The test system of this data set is GST-EZH2. The data set is described as follows: Alpha assay (saturation). As to conditions: RNA-protein binding buffer: 50 mM Tris-HCl pH 7.9, 10 mM beta-ME, 10% glycerol, 5 mM MgCl2, 100 mM KCl, 0.1% NP-40; EMSA 1 h at RT, 1 ug His-EZH2, 0.035 pmol …. (Mobility shift assays separate free from complexed probe on a gel.)

The substance LINC00301 (Alpha assay) registered a K half of 228 nM.
